Reference: US20030148447A1 (ZymoGenetics, published 2003)

B1: zalpha11CFLG soluble receptor (zalpha11 extracellular domain with C-terminal FLAG tag) (receptor)
chain: not shown
modifications: first Trp of the WSXWS motif C-mannosylated in ~35% of molecules (BHK)
B2: zalpha11CEE soluble receptor (zalpha11 extracellular domain with C-terminal Glu-Glu tag) (receptor)
chain: not shown
modifications: first Trp of the WSXWS motif C-mannosylated in ~46% of molecules (BHK)

Columns and labels:
[1] = molecular target: factor present in the activated monkey spleen conditioned media; assay: cell-based or functional assay
[2] = molecular target: factor present in the activated CD3+ selected human T-cell conditioned media; assay: cell-based or functional assay

Binder	inhibition of conditioned-medium-driven BaF3/Zalpha11 cell growth; soluble receptor concentration giving complete inhibition [1] [µg/mL]	titration of soluble receptor; lowest concentration completely inhibiting BaF3/Zalpha11 growth [1] [ng/mL]	inhibition of conditioned-medium-driven BaF3/Zalpha11 cell growth; soluble receptor concentration giving complete inhibition [2] [µg/mL]	titration of soluble receptor; lowest concentration completely inhibiting BaF3/Zalpha11 growth [2] [ng/mL]
B1	10	20	10	20
B2	10	20	10	20
